Measurements as given in patent US8290713 (LONZA BIOLOGICS, dated 2012).
Non-standard residues stand in square brackets, D forms with d.

Biological target: α-synuclein (UniProt P37840 1-140)
Experiment: cell-based or functional assay
Further: test concentration or dose not given here.

B1: ZP-0205 (peptide)
peptide: Ac-[dQ][dY][dS][dP][dL][dI]-NH2
SMILES: CC[C@@H](C)[C@@H](NC(=O)[C@@H](CC(C)C)NC(=O)[C@H]1CCCN1C(=O)[C@@H](CO)NC(=O)[C@@H](Cc1ccc(O)cc1)NC(=O)[C@@H](CCC(N)=O)NC(C)=O)C(N)=O
Question: For B1, which “% decrease in ThT fluorescence” value is on record?
Answer: Its value is 16.6%.

Question: What about the “% decrease in rate of aggregation” value of the same binder?
Answer: Its value is -11.9%.

Question: And the “% increase in Lag phase” value?
Answer: The value was 30.6%.

B2: ZP-0175 (peptide)
peptide: Ac-[dH][dH][dT][dI][dV][dV]-NH2
SMILES: CC[C@@H](C)[C@@H](NC(=O)[C@H](NC(=O)[C@@H](Cc1c[nH]cn1)NC(=O)[C@@H](Cc1c[nH]cn1)NC(C)=O)[C@H](C)O)C(=O)N[C@@H](C(=O)N[C@@H](C(N)=O)C(C)C)C(C)C
Question: Which “% decrease in ThT fluorescence” value does the source give for B2 here?
Answer: Its value is 21.9%.

Question: What about the “% decrease in rate of aggregation” value of the same binder?
Answer: The value was 16.8%.

Question: And the “% increase in Lag phase” value?
Answer: The value was 89.7%.

B3: ZP-0162 (peptide)
peptide: Ac-[dH][dH][dV][dE][dV][dA]-NH2
SMILES: CC(=O)N[C@H](Cc1c[nH]cn1)C(=O)N[C@H](Cc1c[nH]cn1)C(=O)N[C@@H](C(=O)N[C@H](CCC(=O)O)C(=O)N[C@@H](C(=O)N[C@H](C)C(N)=O)C(C)C)C(C)C
Question: With B3 as the binder, how does the “% decrease in ThT fluorescence” value read?
Answer: Its value is 6.3%.

Question: And the “% decrease in rate of aggregation” value?
Answer: The value was 6.6%.

Question: And the “% increase in Lag phase” value?
Answer: The value was 33.4%.

B4: ZP-0204 (peptide)
peptide: Ac-[dQ][dY][dS][dV][dP][dI]-NH2
SMILES: CC[C@@H](C)[C@@H](NC(=O)[C@H]1CCCN1C(=O)[C@H](NC(=O)[C@@H](CO)NC(=O)[C@@H](Cc1ccc(O)cc1)NC(=O)[C@@H](CCC(N)=O)NC(C)=O)C(C)C)C(N)=O
Question: B4 was tested. Which “% decrease in ThT fluorescence” value did it give?
Answer: The value was 1.4%.

Question: What about the “% decrease in rate of aggregation” value of the same binder?
Answer: The value was -5.6%.

Question: And the “% increase in Lag phase” value?
Answer: Its value is 23.6%.

B5: ZP-0179 (peptide)
peptide: Ac-[dH][dH][dT][dI][dV][dK]-NH2
SMILES: CC[C@@H](C)[C@@H](NC(=O)[C@H](NC(=O)[C@@H](Cc1c[nH]cn1)NC(=O)[C@@H](Cc1c[nH]cn1)NC(C)=O)[C@H](C)O)C(=O)N[C@@H](C(=O)N[C@H](CCCCN)C(N)=O)C(C)C
Question: How did the “% decrease in ThT fluorescence” value turn out when B5 was run?
Answer: The value was 0.6%.

Question: And the “% decrease in rate of aggregation” value?
Answer: Its value is -0.6%.

Question: What about the “% increase in Lag phase” value of the same binder?
Answer: The value was 30.4%.

B6: ZP-0202 (peptide)
peptide: Ac-[dQ][dY][dK][dV][dL][dI]-NH2
SMILES: CC[C@@H](C)[C@@H](NC(=O)[C@@H](CC(C)C)NC(=O)[C@H](NC(=O)[C@@H](CCCCN)NC(=O)[C@@H](Cc1ccc(O)cc1)NC(=O)[C@@H](CCC(N)=O)NC(C)=O)C(C)C)C(N)=O
Question: Which “% decrease in ThT fluorescence” value does the source give for B6 here?
Answer: The value was 53.5%.

Question: And the “% decrease in rate of aggregation” value?
Answer: Its value is 54.5%.

Question: And the “% increase in Lag phase” value?
Answer: Its value is -28.8%.

B7: ZP-0168 (peptide)
peptide: Ac-[dH][dH][dV][dI][dV][dP]-NH2
SMILES: CC[C@@H](C)[C@@H](NC(=O)[C@H](NC(=O)[C@@H](Cc1c[nH]cn1)NC(=O)[C@@H](Cc1c[nH]cn1)NC(C)=O)C(C)C)C(=O)N[C@@H](C(=O)N1CCC[C@@H]1C(N)=O)C(C)C
Question: With B7 as the binder, how does the “% decrease in ThT fluorescence” value read?
Answer: Its value is -8.6%.

Question: What about the “% decrease in rate of aggregation” value of the same binder?
Answer: Its value is -5.4%.

Question: What about the “% increase in Lag phase” value of the same binder?
Answer: Its value is 29.8%.

B8: ZP-0206 (peptide)
peptide: Ac-[dQ][dY][dP][dV][dL][dI]-NH2
SMILES: CC[C@@H](C)[C@@H](NC(=O)[C@@H](CC(C)C)NC(=O)[C@H](NC(=O)[C@H]1CCCN1C(=O)[C@@H](Cc1ccc(O)cc1)NC(=O)[C@@H](CCC(N)=O)NC(C)=O)C(C)C)C(N)=O
Question: B8 was tested. Which “% decrease in ThT fluorescence” value did it give?
Answer: The value was 3.3%.

Question: What about the “% decrease in rate of aggregation” value of the same binder?
Answer: Its value is 8.4%.

Question: What about the “% increase in Lag phase” value of the same binder?
Answer: The value was 25.9%.

B9: ZP-0180 (peptide)
peptide: Ac-[dH][dH][dT][dV][dV][dA]-NH2
SMILES: CC(=O)N[C@H](Cc1c[nH]cn1)C(=O)N[C@H](Cc1c[nH]cn1)C(=O)N[C@@H](C(=O)N[C@@H](C(=O)N[C@@H](C(=O)N[C@H](C)C(N)=O)C(C)C)C(C)C)[C@H](C)O
Question: What does the source list for B9?
Answer: % decrease in ThT fluorescence: 19.8%; % decrease in rate of aggregation: 18.4%; % increase in Lag phase: 30.3%

B10: ZP-0170 (peptide)
peptide: Ac-[dH][dH][dV][dI][dV][dT]-NH2
SMILES: CC[C@@H](C)[C@@H](NC(=O)[C@H](NC(=O)[C@@H](Cc1c[nH]cn1)NC(=O)[C@@H](Cc1c[nH]cn1)NC(C)=O)C(C)C)C(=O)N[C@@H](C(=O)N[C@@H](C(N)=O)[C@H](C)O)C(C)C
Question: What does the source list for B10?
Answer: % decrease in ThT fluorescence: 24.5%; % decrease in rate of aggregation: 29.3%; % increase in Lag phase: 29.4%

B11: ZP-0172 (peptide)
peptide: Ac-[dH][dH][dV][dI][dV][dW]-NH2
SMILES: CC[C@@H](C)[C@@H](NC(=O)[C@H](NC(=O)[C@@H](Cc1c[nH]cn1)NC(=O)[C@@H](Cc1c[nH]cn1)NC(C)=O)C(C)C)C(=O)N[C@@H](C(=O)N[C@H](Cc1c[nH]c2ccccc12)C(N)=O)C(C)C
Question: What does the source list for B11?
Answer: % decrease in ThT fluorescence: -1.7%; % decrease in rate of aggregation: 6.9%; % increase in Lag phase: 28.1%

B12: ZP-0194 (peptide)
peptide: Ac-[dH][dH][dT][dT][dV][dY]-NH2
SMILES: CC(=O)N[C@H](Cc1c[nH]cn1)C(=O)N[C@H](Cc1c[nH]cn1)C(=O)N[C@@H](C(=O)N[C@@H](C(=O)N[C@@H](C(=O)N[C@H](Cc1ccc(O)cc1)C(N)=O)C(C)C)[C@H](C)O)[C@H](C)O
Question: With B12 as the binder, how does the “% decrease in ThT fluorescence” value read?
Answer: The value was 11.6%.

Question: And the “% decrease in rate of aggregation” value?
Answer: Its value is 7.7%.

Question: And the “% increase in Lag phase” value?
Answer: Its value is 38.8%.

B13: ZP-0169 (peptide)
peptide: Ac-[dH][dH][dV][dI][dV][dV]-NH2
SMILES: CC[C@@H](C)[C@@H](NC(=O)[C@H](NC(=O)[C@@H](Cc1c[nH]cn1)NC(=O)[C@@H](Cc1c[nH]cn1)NC(C)=O)C(C)C)C(=O)N[C@@H](C(=O)N[C@@H](C(N)=O)C(C)C)C(C)C
Question: What does the source list for B13?
Answer: % decrease in ThT fluorescence: -0.5%; % decrease in rate of aggregation: -13.3%; % increase in Lag phase: 26.1%

B14: ZP-0186 (peptide)
peptide: Ac-[dH][dH][dT][dL][dV][dV]-NH2
SMILES: CC(=O)N[C@H](Cc1c[nH]cn1)C(=O)N[C@H](Cc1c[nH]cn1)C(=O)N[C@@H](C(=O)N[C@H](CC(C)C)C(=O)N[C@@H](C(=O)N[C@@H](C(N)=O)C(C)C)C(C)C)[C@H](C)O
Question: What does the source list for B14?
Answer: % decrease in ThT fluorescence: 30.7%; % decrease in rate of aggregation: 29.7%; % increase in Lag phase: 16.1%

B15: ZP-0158 (peptide)
peptide: Ac-[dH][dH][dV][dI][dV][dA]-NH2
SMILES: CC[C@@H](C)[C@@H](NC(=O)[C@H](NC(=O)[C@@H](Cc1c[nH]cn1)NC(=O)[C@@H](Cc1c[nH]cn1)NC(C)=O)C(C)C)C(=O)N[C@@H](C(=O)N[C@H](C)C(N)=O)C(C)C
Question: For B15, which “% decrease in ThT fluorescence” value is on record?
Answer: The value was 15.1%.

Question: And the “% decrease in rate of aggregation” value?
Answer: Its value is 18.4%.

Question: And the “% increase in Lag phase” value?
Answer: Its value is 32.5%.

B16: ZP-0171 (peptide)
peptide: Ac-[dH][dH][dV][dI][dV][dY]-NH2
SMILES: CC[C@@H](C)[C@@H](NC(=O)[C@H](NC(=O)[C@@H](Cc1c[nH]cn1)NC(=O)[C@@H](Cc1c[nH]cn1)NC(C)=O)C(C)C)C(=O)N[C@@H](C(=O)N[C@H](Cc1ccc(O)cc1)C(N)=O)C(C)C
Question: For B16, which “% decrease in ThT fluorescence” value is on record?
Answer: The value was 13.9%.

Question: What about the “% decrease in rate of aggregation” value of the same binder?
Answer: The value was 13.2%.

Question: What about the “% increase in Lag phase” value of the same binder?
Answer: The value was 43.6%.

B17: ZP-0193 (peptide)
peptide: Ac-[dH][dH][dT][dE][dV][dY]-NH2
SMILES: CC(=O)N[C@H](Cc1c[nH]cn1)C(=O)N[C@H](Cc1c[nH]cn1)C(=O)N[C@@H](C(=O)N[C@H](CCC(=O)O)C(=O)N[C@@H](C(=O)N[C@H](Cc1ccc(O)cc1)C(N)=O)C(C)C)[C@H](C)O
Question: Which “% decrease in ThT fluorescence” value does the source give for B17 here?
Answer: Its value is 8.7%.

Question: What about the “% decrease in rate of aggregation” value of the same binder?
Answer: Its value is -15.8%.

Question: And the “% increase in Lag phase” value?
Answer: Its value is 31.4%.

B18: ZP-0161 (peptide)
peptide: Ac-[dH][dH][dV][dK][dV][dA]-NH2
SMILES: CC(=O)N[C@H](Cc1c[nH]cn1)C(=O)N[C@H](Cc1c[nH]cn1)C(=O)N[C@@H](C(=O)N[C@H](CCCCN)C(=O)N[C@@H](C(=O)N[C@H](C)C(N)=O)C(C)C)C(C)C
Question: Which “% decrease in ThT fluorescence” value does the source give for B18 here?
Answer: Its value is -5.9%.

Question: And the “% decrease in rate of aggregation” value?
Answer: Its value is 2.3%.

Question: What about the “% increase in Lag phase” value of the same binder?
Answer: The value was 19.7%.

B19: ZP-0159 (peptide)
peptide: Ac-[dH][dH][dV][dV][dV][dA]-NH2
SMILES: CC(=O)N[C@H](Cc1c[nH]cn1)C(=O)N[C@H](Cc1c[nH]cn1)C(=O)N[C@@H](C(=O)N[C@@H](C(=O)N[C@@H](C(=O)N[C@H](C)C(N)=O)C(C)C)C(C)C)C(C)C
Question: Which “% decrease in ThT fluorescence” value does the source give for B19 here?
Answer: Its value is 19.8%.

Question: What about the “% decrease in rate of aggregation” value of the same binder?
Answer: Its value is 18.6%.

Question: What about the “% increase in Lag phase” value of the same binder?
Answer: The value was 36.6%.

B20: ZP-0181 (peptide)
peptide: Ac-[dH][dH][dT][dL][dV][dA]-NH2
SMILES: CC(=O)N[C@H](Cc1c[nH]cn1)C(=O)N[C@H](Cc1c[nH]cn1)C(=O)N[C@@H](C(=O)N[C@H](CC(C)C)C(=O)N[C@@H](C(=O)N[C@H](C)C(N)=O)C(C)C)[C@H](C)O
Question: How did the “% decrease in ThT fluorescence” value turn out when B20 was run?
Answer: Its value is 22.8%.

Question: What about the “% decrease in rate of aggregation” value of the same binder?
Answer: Its value is -1.2%.

Question: And the “% increase in Lag phase” value?
Answer: Its value is 29.4%.
